Source: patent publication US20240101668A1 (WUGEN, published 2024)
Positions count from the first letter of the chain named.

B1: Polypeptide No. 91 (scFv, V domains shown)
VH: QVQLVQSGAEVKKPGASVKVSCKASGGTFSSYAISWVRQAPGQGLEWMGWMNPNSGNTGYAQKFQGRVTMTRDTSTSTVYMELSSLRSEDTAVYYCAREDYYDSSGNFDYWGQGTLVTVSS
VL: DIQMTQSPSSLSASVGDRVTITCQASHDINIHLNWYQQKPGKAPKLLIYDASNLETGVPSRFSGSGSGTDFTLTISSLQPEDFATYYCQQAYSLPWTFGQGTKVEIKR
notes: scFv
B2: Polypeptide No. 191 (scFv, V domains shown)
VH: B1 VH
VL: B1 VL
notes: scFv
B3: Polypeptide No. 89 (scFv, V domains shown)
VH: QVQLVQSGAEVKKPGASVKVSCKASGYTFTNYYMHWVRQAPGQGLEWMGWINPNSGDTNYEQKFQGRVTMTRDTSTSTVYMELSSLRSEDTAVYYCARDDRIQLWVPLVFWGQGTLVTVSS
VL: DIQMTQSPSSLSASVGDRVTITCRASQGISNYLAWYQQKPGKAPKLLIYSASNLQSGVPSRFSGSGSGTDFTLTISSLQPEDFATYYCQQSFSTPFTFGQGTKLEIKR
notes: scFv
B4: Polypeptide No. 90 (scFv, V domains shown)
VH: EVQLLESGGGLVQPGGSLRLSCAASGFTFSNSDMNWVRQAPGKGLEWVSYISGTGSTIYYADSVKGRFTISRDNSKNTLYLQMNSLRAEDTAVYYCAKDYDSSYGSGYYGMDVWGQGTTVTVSS
VL: B3 VL with G28S, S30Y, A34N, S50A, S91Y, F92G, S93N, T94A, F96L, L104V
notes: scFv
B5: Polypeptide No. 193 (scFv, V domains shown)
VH: B4 VH
VL: B3 VL with G28S, S30Y, A34N, S50A, S91Y, F92G, S93N, T94A, F96L, L104V
notes: scFv
B6: Polypeptide No. 192 (scFv, V domains shown)
VH: B3 VH
VL: B3 VL
notes: scFv
B7: Polypeptide No. 100 (scFv, V domains shown)
VH: QVQLVQSGAEVKKPGASVKVSCKASGATRSWMHWVRQAPGQGLEWMGIINPSGDSTSYAQKFQGRVTMTRDTSTSTVYMELSSLRSEDTAVYYCAKEPYSSSPYYFDYWGQGTLVTVSS
VL: B3 VL with G28S, N31S, Y32W, S50G, N53S, F92Y, S93T, F96I, K103R
notes: scFv
B8: Polypeptide No. 108 (scFv, V domains shown)
VH: QVQLVQSGAEVKKPGASVKVSCKASGYTFTNYDINWVRQAPGQGLEWMGWMNPNSGNTGLVEKFQGRVTMTRDTSTSTVYMELSSLRSEDTAVYYCARGWGHGYGDYKFDYWGQGTLVTVSS
VL: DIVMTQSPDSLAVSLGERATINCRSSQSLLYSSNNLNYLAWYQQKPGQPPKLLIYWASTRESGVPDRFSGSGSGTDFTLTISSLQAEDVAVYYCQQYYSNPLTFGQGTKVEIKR
notes: scFv

The binders below were run against T1, huCD33-G69 stably expressed on Jurkat cells (human, UniProt P20138 18-364) (assay: FACS on cells;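 also: fixed Jurkat lines probed with myc-tagged scFv periplasmic extracts, anti-myc PE flow cytometry, PE MFI fold binned − <2, + 2–10, ++ 10–30, +++ >30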).
T1 construct: whole, on cells; >200,000 receptors per cell; also called CD33 Mutant; CD33 R69G
T1 sequence (P20138 18-364 R69G): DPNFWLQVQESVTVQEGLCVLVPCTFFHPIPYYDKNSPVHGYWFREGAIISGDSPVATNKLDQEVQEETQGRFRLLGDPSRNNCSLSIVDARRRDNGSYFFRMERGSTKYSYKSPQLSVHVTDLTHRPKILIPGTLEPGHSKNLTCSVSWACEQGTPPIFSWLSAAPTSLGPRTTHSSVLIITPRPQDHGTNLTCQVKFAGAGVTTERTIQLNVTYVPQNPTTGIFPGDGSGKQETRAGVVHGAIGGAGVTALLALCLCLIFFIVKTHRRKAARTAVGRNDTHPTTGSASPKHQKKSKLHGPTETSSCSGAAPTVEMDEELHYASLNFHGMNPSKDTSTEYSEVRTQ
Procedure: (§1) Jurkat cells were engineered to stably express either the huCD33-R69 or huCD33-G69 variant at >200,000 receptors per cell. Parental, huCD33-R69, and huCD33-G69 Jurkat cell lines were stained with differing levels of CellTrace Violet Cell Proliferation Kit (ThermoFisher, cat. #C34557) to barcode each cell line. Barcoded Jurkat cell lines were fixed with paraformaldehyde and incubated with myc-labeled scFv periplasmic extracts and a secondary anti-myc PE-conjugated monoclonal antibody. Appropriate positive and negative controls were used. Stained cells were analyzed by flow cytometry (CytoFLEX, Beckman Coulter, Inc.) and binding was assessed by change in PE mean fluorescence intensity (MFI) of the barcoded cell populations.
(§2) Data is disclosed below in Table 16c, reporting FACS fold change over parental as (−), indicating <2 fold; (+), indicating 2-10 fold; (++), indicating 10-30 fold; and (+++), indicating >30 fold.

FACS geometric mean fold change over Jurkat parental	Binder
10 to 30 fold	B1
10 to 30 fold	B2
10 to 30 fold	B3
> 30 fold	B4
> 30 fold	B5
10 to 30 fold	B6
10 to 30 fold	B7
10 to 30 fold	B8

What follows are binders tested against T2, huCD33-R69 stably expressed on Jurkat cells (human, UniProt P20138 18-364) (assay: FACS on cells;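 also: fixed Jurkat lines probed with myc-tagged scFv periplasmic extracts, anti-myc PE flow cytometry, PE MFI fold binned − <2, + 2–10, ++ 10–30, +++ >30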).
T2 construct: whole, on cells; >200,000 receptors per cell; also called CD33 WT; CD33^ARG69
T2 sequence (P20138 18-364): as the sequence (P20138 18-364 R69G) above, with G52R counted along it
Procedure: as §1, §2

FACS geometric mean fold change over Jurkat parental	Binder
> 30 fold	B1
> 30 fold	B2
10 to 30 fold	B3
> 30 fold	B4
> 30 fold	B5
10 to 30 fold	B6
10 to 30 fold	B7
10 to 30 fold	B8
